The record followed here is patent EP4306640A1.

This assay concerns the target human CXCR4 (C-X-C chemokine receptor type 4), endogenous on human leukemia cell lines (human) (UniProt P61073). Kind of assay: cell-based or functional assay.
Chain of UniProt P61073 (P61073 whole entry): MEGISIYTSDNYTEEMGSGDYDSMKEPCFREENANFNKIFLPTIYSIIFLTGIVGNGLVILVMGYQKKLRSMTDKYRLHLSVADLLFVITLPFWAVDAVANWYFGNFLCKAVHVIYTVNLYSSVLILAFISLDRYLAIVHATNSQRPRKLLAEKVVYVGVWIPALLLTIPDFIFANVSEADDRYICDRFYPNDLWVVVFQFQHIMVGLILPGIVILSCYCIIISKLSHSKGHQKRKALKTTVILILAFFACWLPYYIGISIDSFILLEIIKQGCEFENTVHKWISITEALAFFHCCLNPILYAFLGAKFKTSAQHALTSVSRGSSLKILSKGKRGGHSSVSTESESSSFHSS

human CXCL12α (ligand) displayed a stimulation of migration of BV-173 cells (chemotaxis assay), half-maximal stimulation of 3 nM; a stimulation of migration of Jurkat cells (chemotaxis assay), half-maximal stimulation of 0.3 nM; a stimulation of migration of Nalm-6 cells (chemotaxis assay), half-maximal stimulation of 0.3 nM; a stimulation of migration of U937 cells (chemotaxis assay), half-maximal stimulation of 3 nM.
